The target of this test is Huntingtin Exon 1 with 44 glutamines (HttEx1Q44) amyloid fibrils. As to the kind of experiment: MST.

In turn, “E3 ubiquitin ligase CHIP (from UniProt Q9UNE7 1-303) (enzyme)” yielded a K app with FP20 of 170 nM and a Kd of 460 nM.

The values are drawn from article doi:10.64898/2025.12.19.695423.
